Target: GLP-1 receptor on RIN-m5F rat insulinoma cells (rat) (UniProt P32301)
Assay: cell-based or functional assay

UniProt P32301, sequence (P32301 22-463): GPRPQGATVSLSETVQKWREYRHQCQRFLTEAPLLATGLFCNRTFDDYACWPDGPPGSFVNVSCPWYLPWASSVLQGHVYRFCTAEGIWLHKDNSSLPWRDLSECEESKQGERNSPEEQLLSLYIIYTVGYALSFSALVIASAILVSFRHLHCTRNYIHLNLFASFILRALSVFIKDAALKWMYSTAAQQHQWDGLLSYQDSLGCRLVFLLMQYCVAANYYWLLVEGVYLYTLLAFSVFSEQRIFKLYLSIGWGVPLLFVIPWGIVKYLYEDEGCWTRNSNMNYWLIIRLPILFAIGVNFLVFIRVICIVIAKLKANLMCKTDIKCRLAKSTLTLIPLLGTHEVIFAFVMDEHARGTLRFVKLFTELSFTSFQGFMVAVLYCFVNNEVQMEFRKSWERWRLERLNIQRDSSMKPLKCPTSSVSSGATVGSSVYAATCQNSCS

Substance | cAMP production in RIN-m5F cells, EC50 [nM] | cAMP production in RIN-m5F cells, ratio vs Exendin4 (ratio vs Exendin4)
desamino-histidyl-exendin-4 (from UniProt P26349 48-86) (peptide) | 0.95 | 127
imidazoacetyl-exendin-4 (from UniProt P26349 48-86) (peptide) | 1.2 | 100

Reference: patent US9422349
